Data on 18 molecules can be found in patent US20240425556A1, “MYOPEPTIDES AND METHODS OF USE IN TREATING HEART FAILURE” (University of Cincinnati, priority 2021, published 2024).

B2: recombinant S2^126 (proximal 126 amino acid sub-fragment 2 region of myosin) with 6X his-tag (other)
chain: PLLKSAETEKEMANMKEEFGRVKDALEKSEARRKELEEKMVSLLQEKNDLQLQVQAEQDNLNDAEERCDQLIKNKIQLEAKVKEMTERLEDEEEMNAELTAKKRKLEDECSELKKDIDDLELTLAK
notes: The position of the his-tag is unknown; also called mouse myosin S2; not shown: 6X his-tag
B6: recombinant C0-C2 protein (C0, C1 and C2 domains of cardiac myosin binding protein-C) with 6X his-tag (other)
chain: MPEPGKKPVSAFNKKPRSAEVTAGSAAVFEAETERSGVMVRWQRDGSDITANDKYGLAAEGKRHTLTVRDASPDDQGSYAVIAGSSKVKFDLKVTEPAPPEKAESEVAPGAPEEVPAPATELEESVSSPEGSVSVTQDGSAAEHQGAPDDPIGLFLMRPQDGEVTVGGSIVFSARVAGASLLKPPVVKWFKGKWVDLSSKVGQHLQLHDSYDRASKVYLFELHITDAQTTSAGGYRCEVSTKDKFDSCNFNLTVHEAIGSGDLDLRSAFRRTSLAGAGRRTSDSHEDAGTPDFSSLLKKRDSFRRDSKLEAPAEEDVWEILRQAPPSEYERIAFQHGVEACHRPLKRLKGMKQDEKKSTAFQKKLEPAYQVNKGHKIRLTVELADPDAEVKWLKNGQEIQMSGSKYIFESVGAKRTLTISQCSLADDAAYQCVVGGEKCSTELFVKEP

The target in one assay is T1, S2^126-C0-C2 binding (Homo sapiens, UniProt Q14896).
T1 construct: 6X His; made in house; host or cells: E. coli BL21
The experiment in a line: Solid phase binding assay (SPBA), competition for S2^126-C0-C2 binding. As to conditions: for ability to compete for S2^126-C0-C2 binding: SPBA, FIGS. 3A and 3B. The protocol: Peptides of Table 1 were tested in vitro to determine whether they compete for binding in the interaction between S2^126 and the C0-C2 protein. In these experiments, recombinant S2^126 and C0-C2 protein with 6X his-tags were bacterially expressed in BL21 E. coli and then purified through Talon© metal affinity columns. A solid phase binding assay (SPBA) was then performed, whereby 20 μM of the C0-C2 protein was adsorbed onto wells of a 96-well microtiter plate. Then, 20 μM of S2^126, along with increasing concentrations of selected experimental peptides from Table 1, ranging from 0-20 μM, were added.
The following procedure identified the competitive nature of the tested experimental peptides from Table 1. […] The Alexa Fluor 568© secondary antibody (anti-rabbit) would then bind to the primary antibody to give a relative positive fluorescence of 1.0. Conversely, if the experimental peptide successfully competed with the S2^126-C0-C2 binding. then the S2^126 site would not be available for binding by the primary antibody. Therefore, the secondary antibody would also fail to bind, leading to a decrease in the relative fluorescence below 1.0. As a result, for a non-competing peptide, the relative fluorescence approaches 1.0, as observed by S2^126-C0-C2 binding. For a competing peptide, a decay in the relative fluorescence is observed. This SPBA assay was used to screen peptides for efficacy in disrupting the interaction between S2^126-C0-C2.

Assay [1] relates to skinned papillary fibers from mouse hearts. The experiment in a line: Maximal force (Fmax) of skinned papillary muscle fibers versus calcium concentration. Conditions: for effect on muscle / contractile function: summary statement. Here is the method: The ability of the experimental peptides to increase or otherwise affect contractility in the heart muscle system was tested using skinned papillary fibers from mouse hearts. In this ex vivo experiment, cardiac papillary fibers from mouse hearts were isolated and skinned overnight in 1% Triton X-100 low calcium buffer supplemented with ATP, creatine phosphate, and magnesium chloride. Because skinned muscle fibers are devoid of sarcolemma, nuclei, and sarcoplasmic reticulum, the fibers can only contract if supplemented with calcium, magnesium chloride, ATP, and creatine phosphate. This assay allows for the opportunity to screen for compounds or molecules that affect the contractility of the muscle.
Skinned papillary muscle fibers were cycled through buffers containing a constant concentration magnesium chloride, ATP, creatine phosphate, but increasing concentrations of calcium. As the muscle fiber goes from buffers containing low concentrations of calcium to buffers containing high concentrations of calcium, the force developed increases with increasing concentration. Thus, plotting the force produced versus calcium concentration provides a sigmoidal curve, yielding the maximal force produced (Fmax) and the midpoint calcium concentration where the force produced is exactly half of the force produced at high calcium concentration. This is useful for measuring the calcium sensitivity (pCa50) of the muscle fibers.
The experiment and measurement of Fmax, pCa50, and ktr was performed for a muscle in the absence of the experimental peptide and then in the presence of 10 μM and 20 μM of the experimental peptide.

In assay [2] the target is B6. Kind of assay: solid phase binding assay; peptide 0-20 µM against 20 µM S2^126 on adsorbed C0-C2.
Assay [3] addresses B6. The experiment in a line: ITC; 300 µM S2^126 titrated into 20 µM C0-C2.
A further assay concerns the target T2, C0-C2 protein (Homo sapiens, UniProt Q14896).
T2 construct: 6X His; made in house; host or cells: E. coli BL21
Kind of assay: Isothermal titrating calorimetry (ITC). The assay is classed as binding. Conditions: 300 μM S2^126 titrated to 20 μM C0-C2 protein; read-out: dissociation constant (kd). The protocol: Isothermal titrating calorimetry (ITC) was used to validate and verify the results from the SPBA assays of Example 2. In ITC experiments, the heat of binding between two proteins is measured by titrating one protein with the other protein and then measuring the heat released or absorbed through a reference fluid with a constant temperature. By titrating 300 μM of S2^126 to 20 μM of C0-C2 protein, the stoichiometry (η) of 0.98 and dissociation constant (kd) of 4.7 μM for S2^126-C0-C2 binding were determined.
Using the above stoichiometry and dissociation constant values as controls, all of the experimental peptides were titrated at 300 μM with 20 μM of C0-C2 protein and compared with the above S2^126 control.

The target in assay [4] is cardiac myosin binding protein-C (cMyBP-C) in skinned papillary muscle fibers from mouse hearts (mouse, UniProt O70468 1-1270). Kind of assay: cell-based or functional assay.
For assay [5], the target named is B6. Kind of assay: solid phase binding assay, competition: C0-C2 adsorbed on the plate, 20 µM S2^126 as competitor plus rising peptide; bound S2^126 detected with rabbit anti-S2^126 and Alexa Fluor 568 secondary antibody (Fluorescence Endpoint λ603, relative).
Assay [6] addresses B2. The experiment in a line: ITC; 300 µM S2^126 titrated into 20 µM C0-C2. Background: ITC needs no label: the signal is the heat of the interaction.
Assay [7] deals with B6. Kind of assay: solid phase binding assay; competition with S2^126 on adsorbed C0-C2.
Where [8] appears, read: at 20 μM peptide, 20 μM S2^126, 20 μM C0-C2 adsorbed.

T1 sequence (Q14896 1-451 limits assumed): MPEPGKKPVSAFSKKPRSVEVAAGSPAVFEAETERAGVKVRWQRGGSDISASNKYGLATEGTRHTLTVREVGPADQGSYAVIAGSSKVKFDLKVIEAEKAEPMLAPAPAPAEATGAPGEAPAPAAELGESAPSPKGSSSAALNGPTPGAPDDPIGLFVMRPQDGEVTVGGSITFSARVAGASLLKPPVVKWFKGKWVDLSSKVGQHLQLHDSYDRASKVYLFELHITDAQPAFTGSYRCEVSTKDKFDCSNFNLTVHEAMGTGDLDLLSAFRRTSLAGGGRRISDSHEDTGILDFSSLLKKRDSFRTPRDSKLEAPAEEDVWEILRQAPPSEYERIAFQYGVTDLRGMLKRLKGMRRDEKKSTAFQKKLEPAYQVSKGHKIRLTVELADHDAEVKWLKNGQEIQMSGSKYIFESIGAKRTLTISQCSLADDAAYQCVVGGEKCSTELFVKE
T2 sequence (Q14896 1-451 limits assumed): as above

Take “CDQLIKNKIQLEAKVKEMTERLEDEEEMNAELTAKK (listed as Mus musculus) [Amg 23005]”: the “ability to compete for S2^126-C0-C2 binding” value (shortened to “ability to compete”) in the assay with S2^126-C0-C2 binding is “effectively compete”. In addition, the relative fluorescence with S2^126-C0-C2 binding (setting [8]) was 0. The “effect on muscle / contractile function” value in assay [1] is “successfully improved muscle function”. As for “ETEKEMAMVSLLQAEERCDQDIDDLELTLAK [Amg 23050, scramble control peptide, reference compound]”, the “ability to compete” value with S2^126-C0-C2 binding is reported as “unable to compete”. On to “PLLKSAETEKEMANMKEEFGRVKDALEKSEARRKELEEKM (listed as Mus musculus) [Amg 23003]”, for which, in the assay with S2^126-C0-C2 binding, the “ability to compete” value is reported as “unable to compete”.

Regarding “RKELEEKMVSLLQEKNDLQLQVQAEQDNLNDAEERCDQLIKNK (listed as Mus musculus) [Amg 23004]”, the “ability to compete” value with S2^126-C0-C2 binding is on record as “unable to compete”. As to “VKEMTERLEDEEEMNAELTAKK (listed as Mus musculus) [Amg 27119]”, the “ability to compete” value with S2^126-C0-C2 binding is listed as “effectively compete”. Further, the relative fluorescence in the assay with S2^126-C0-C2 binding (at peptide concentrations above 15 μM) was 0. In assay [1] (peptide 10 μM and 20 μM versus control, particularly at higher calcium concentrations), the “increase of maximal force produced by the fibers” value is “about 30%”. Further, the “effect on muscle / contractile function” value in assay [1] is “highly effective in improving contractile function”. Take “VKEMTERLEDEEEMNAELTAKKRKLEDECSELKKDIDDLELTLAK (listed as Mus musculus) [Amg 23006]”: in the assay with S2^126-C0-C2 binding, the “ability to compete” value is reported as “effectively compete”. Further, in the assay with S2^126-C0-C2 binding (setting [8]), the relative fluorescence is 0. Besides, the “effect on muscle / contractile function” value in assay [1] is listed as “successfully improved muscle function”.

B1: Amg 27118 (peptide)
peptide: KLEDECSELKKDIDDLELTLAK
For the molecule B1, in assay [2], the relative fluorescence was around 1 relative fluorescence. Consider B2, for which the “stoichiometry (η)” value in [3] turned out to be 0.98.

B3: PLLKSAETEKEMANMKEEFGRVKDALEKSEARRKELEEKMVSLLQEKNDLQLQVQAEQDNLNDAEERCDQLIKNKIQLEAKVKEMTERLEDEEEMNAELTAKKRKLEDECSELKKDIDDLELTLAK (protein, listed as Mus musculus)
chain: PLLKSAETEKEMANMKEEFGRVKDALEKSEARRKELEEKMVSLLQEKNDLQLQVQAEQDNLNDAEERCDQLIKNKIQLEAKVKEMTERLEDEEEMNAELTAKKRKLEDECSELKKDIDDLELTLAK
modifications: 6X His tag
notes: recombinant proximal 126 amino acid fragment of myosin S2 with 6X his-tag, expressed in E. coli
The term Kd denotes the concentration at which binding is half-saturated. Regarding B3, the Kd with C0-C2 protein was determined as 4.7 µM.

B4: Amg 27117 (peptide)
peptide: DEEEMNAELTAKKR
For the molecule B4, the relative fluorescence in assay [2] is around 1 relative fluorescence.

B5: Amg 27119 (mouse myosin S2 subset) (peptide)
peptide: VKEMTERLEDEEEMNAELTAKK
notes: also called myopeptide
For B5, in assay [4], the “maximal force produced by skinned papillary muscle fibers (Fmax)” value (“maximal force produced … (Fmax)” below) is around 30% and the “rate of force redevelopment (ktr) at pCa 5.7” value (“rate of force redevelopment” for short) turned out to be 2.5 fold. The “IC50 (read off the curve)” value in assay [5] was around 6 µM. Regarding B6, the Kd in assay [6] came to 4.7 µM.

B7: Amg 27120 (peptide)
peptide: ETEKEMAMVSLLQAE
Take B7: the relative fluorescence in assay [2] is around 1 relative fluorescence.

B8: Amg 23005 (peptide)
peptide: CDQLIKNKIQLEAKVKEMTERLEDEEEMNAELTAKK
In the case of B8, in [4], the “maximal force produced … (Fmax)” value is 13% and the “rate of force redevelopment” value was 1.5 fold. For the same molecule, the stoichiometry in [7] was determined as 1.

B9: Amg 23003 (peptide)
peptide: PLLKSAETEKEMANMKEEFGRVKDALEKSEARRKELEEKM
Turning to B9, the relative fluorescence in assay [2] was around 1 relative fluorescence.

B10: Amg 23004 (peptide)
peptide: RKELEEKMVSLLQEKNDLQLQVQAEQDNLNDAEERCDQLIKNK
For the molecule B10, the relative fluorescence in [2] is around 1 relative fluorescence.

B11: Scramble control Amg 25030 (peptide)
peptide: ETEKEMAMVSLLQAEERCDQDIDDLELTLAK
On to B11, for which the relative fluorescence in assay [2] was around 1 relative fluorescence.

B12: Amg 23006 (peptide)
peptide: VKEMTERLEDEEEMNAELTAKKRKLEDECSELKKDIDDLELTLAK
With B12, in assay [4], the “maximal force produced … (Fmax)” value worked out at 13% and the “rate of force redevelopment” value is 1.5 fold. Also, the stoichiometry in [7] came out at 1.
